From publication PMC6825195

Key:
[1] = biological target: cytochrome c oxidase, regulatory competent, from bovine liver (bovine)
[2] = biological target: apoptotic protease-activating factor 1 (mouse (endogenous in Cytc knockout embryonic fibroblasts)) (UniProt O88879)
UniProt O88879, sequence (O88879 whole entry): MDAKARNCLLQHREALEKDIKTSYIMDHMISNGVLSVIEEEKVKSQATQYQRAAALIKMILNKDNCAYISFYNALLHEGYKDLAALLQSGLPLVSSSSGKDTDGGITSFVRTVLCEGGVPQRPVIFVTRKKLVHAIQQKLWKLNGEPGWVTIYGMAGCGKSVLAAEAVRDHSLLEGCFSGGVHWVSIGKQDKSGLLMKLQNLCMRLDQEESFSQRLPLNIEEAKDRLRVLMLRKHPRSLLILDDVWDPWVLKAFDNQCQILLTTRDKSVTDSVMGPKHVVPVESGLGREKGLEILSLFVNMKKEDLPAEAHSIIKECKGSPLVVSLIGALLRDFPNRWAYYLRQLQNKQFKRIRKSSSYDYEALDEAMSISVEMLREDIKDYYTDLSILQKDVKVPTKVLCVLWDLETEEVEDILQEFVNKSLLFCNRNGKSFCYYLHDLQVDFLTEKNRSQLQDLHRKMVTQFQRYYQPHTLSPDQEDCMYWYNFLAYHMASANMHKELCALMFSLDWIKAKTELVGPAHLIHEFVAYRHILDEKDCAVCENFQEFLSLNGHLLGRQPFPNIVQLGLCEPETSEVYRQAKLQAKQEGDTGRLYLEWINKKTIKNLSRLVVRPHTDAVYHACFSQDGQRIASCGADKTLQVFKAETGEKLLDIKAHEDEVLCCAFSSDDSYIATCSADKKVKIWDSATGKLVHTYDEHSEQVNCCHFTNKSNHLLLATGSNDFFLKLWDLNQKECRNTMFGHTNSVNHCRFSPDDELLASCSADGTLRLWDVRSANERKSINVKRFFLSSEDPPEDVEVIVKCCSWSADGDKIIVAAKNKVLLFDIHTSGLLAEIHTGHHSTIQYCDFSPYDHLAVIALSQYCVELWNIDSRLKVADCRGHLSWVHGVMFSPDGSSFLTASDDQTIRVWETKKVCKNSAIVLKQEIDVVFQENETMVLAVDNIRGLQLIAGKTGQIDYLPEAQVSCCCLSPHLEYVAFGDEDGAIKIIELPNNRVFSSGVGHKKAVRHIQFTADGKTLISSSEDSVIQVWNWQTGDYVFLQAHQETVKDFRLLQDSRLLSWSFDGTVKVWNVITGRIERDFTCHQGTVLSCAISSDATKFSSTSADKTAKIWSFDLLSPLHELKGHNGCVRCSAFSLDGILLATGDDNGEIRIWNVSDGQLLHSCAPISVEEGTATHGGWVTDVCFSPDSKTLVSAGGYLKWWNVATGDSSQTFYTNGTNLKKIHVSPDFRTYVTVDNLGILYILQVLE

Row | apparent Km of Cytc in the reaction with cow liver COX (150 nM; 0-20 µM Cytc; oxygen consumption, polarography, 25 °C) [1] [µM] | cell-free caspase-3 activity (DEVD-R110 cleavage) in cytosolic extract of Cytc knockout fibroblasts with 20 µg/mL Cytc, reduction compared to WT (% reduction compared to WT) [2] | oxygen consumption rate (turnover) of purified cow liver COX with 0-20 µM Cytc, reduction compared to WT Cytc (% reduction compared to WT) [1] | Substance
1 | 4.5 | 50 |  | T58A cytochrome c (from UniProt P62897 1-105) (natural protein)
2 | 2.5 | 60 | 25 | T58I cytochrome c (from UniProt P62897 1-105) (natural protein)
3 | 3 | 70 | 45 | phosphomimetic T58E cytochrome c (from UniProt P62897 1-105) (natural protein)
4 | 3 |  |  | wild-type cytochrome c (rodent somatic) (from UniProt P62897 1-105) (natural protein)
